{"source": "the DeepSol protein solubility set", "data": [{"test": "soluble on expression in E. coli; label from the status in PepcDB or PDB records", "values": [{"sequence": "MSLICSISNEVPEHPCVSPVSNHVYERRLIEKYIAENGTDPINNQPLSEEQLIDIKVAHPIRPKPPSATSIPAILKALQDEWDAVMLHSFTLRQQLQTTRQELSHALYQHDAACRVIARLTKEVTAAREALATLKPQAGLIVPQAVPSSQPSVVGAGEPMDLGELVGMTPEIIQKLQDKATVLTTERKKRGKTVPEELVKPEELSKYRQVASHVGLHSASIPGILALDLCPSDTNKILTGGADKNVVVFDKSSEQILATLKGHTKKVTSVVFHPSQDLVFSASPDATIRIWSVPNASCVQVVRAHESAVTGLSLHATGDYLLSSSDDQYWAFSDIQTGRVLTKVTDETSGCSLTCAQFHPDGLIFGTGTMDSQIKIWDLKERTNVANFPGHSGPITSIAFSENGYYLATAADDSSVKLWDLRKLKNFKTLQLDNNFEVKSLIFDQSGTYLALGGTDVQIYICKQWTEILHFTEHSGLTTGVAFGHHAKFIASTGMDRSLKFYSL", "soluble on expression in E. coli": "soluble"}, {"sequence": "MLELKSDDREYTANMLLLNDTDKTVKHKTVGEFYQDLIKQYANESKCGNRLIYKSSYNSLYTFTKGNLDIPFSAINPSWLCNYEKWLRSKGNKETTMSLMLRTLRSTYNKAIENKYARKSDYPFNEYKIGKFDVSTEKRAIAKADIMKLTADISSVGKRQYVQLSKDIFMFSYLCGGINFTDIANLTSKNIVDGKRLHYIRQKTGKLIKLGLSDAALRIIERYAPDSHGYLFPILNVEVHKTALQKQNRIHKILSKVNSNLKLIATQSGLDINLTTYVARHSFATVLKKSGVNIALISEALGHSDLATTQIYLDSFDNEQIDDAMKNLL", "soluble on expression in E. coli": "not soluble"}, {"sequence": "MSLIKKVLPLAEQLRPKNLNDIVGQDHILGENGLITKTIESQIPLSVILWGPPGCGKTSIARLYAQAFNMQFISMSAIFSGVADLKKTIKEAQNQPLFHKGTLLFVDEIHRFNKSQQDAFLPFVENGTIILIGATTENPSFYLNGALLSRLRVLPIYPLDGFSLEQLLERYEKQFAPLPLTAEARHWLITCAQGDGRYLYNLIENLRYASKQILDIPLLEKIFQKRSPLFDKRGDQHYNLISALHKSVRGSDPNAAIYWFTRMLEGGEEPLFLARRLIRMAVEDIGLSDPQALPLAIAAKDAYEMLGSPEGELALAEVVIYLALAPKSNAVYRAFGMAKESASKTSYLNPPLTILNAPTKMMKNLGYGKDYQYDPDLPEAFSGQNYFPDSLEKQHFYEPVERGFERELKKRLEYFEQLRLKKKEGHHHHHH", "soluble on expression in E. coli": "soluble"}, {"sequence": "MSVTLHTTSGDIKIELYVDDAPKACENFLALCASDYYNGCIFHRNIKDFMVQTGDPTHSGKGGESIWGGPFEDEFVSALKHDSRGCVSMANNGPDSNRSQFFITYAKQAHLDMKYTLFGKVIDGFDTLEEIETIKVDNKYRPLVQQK", "soluble on expression in E. coli": "not soluble"}, {"sequence": "SDPDADRVGIACKNDKGEWVLINGNQTCLMYLYYIITQYNKLGKMTGNEFCVKTIVTTELIKKIADKNHIEMLDCYTGFKWIAREIRLREGKKKYIGGGEESYGFLAEDFVRDKDAVSACCLIAEVAAWAKDNGKTLYQLLMDIYVEYGFSKE", "soluble on expression in E. coli": "not soluble"}, {"sequence": "KDWTQYVNPLMGSQSTFELSTGNTYPAIARPWGMNFWTPQTGKMGDGWQYTYTANKIRGFKQTHQPSPWINDYGQFSIMPIVGQPVFDEEKRASWFAHKGEVATPYYYKVYLAEHDIVTEMTPTERAVLFRFTFPENDHSYVVVDAFDKGSYIKIIPEENKIIGYTTRNSGGVPENFKNYFIIEFDKPFTYKATVENGNLQENVAEQTTDHAGAIIGFKTRKGEQVNARIASSFISFEQAAANMNELGKDNIEQLAQKGKDAWNQVLGKIEVEGGNLDQYRTFYSCLYRSLLFPRKFYELDANGQPIHYSPYNGQVLPGYMFTDTGFWDTFRCLFPLLNLMYPSVNKEMQEGLINTYLESGFFPEWASPGHRGCMVGNNSASILVDAYMKGVKVDDIKTLYEGLIHGTENVHPEVSSTGRLGYEYYNKLGYVPYDVKINENAARTLEYAYDDWCIYRLAKELKRPKKEISLFAKRAMNYKNLFDKESKLMRGRNEDGTFQSPFSPLKWGDAFTEGNSWHYTWSVFHDPQGLIDLMGGKEMFVTMMDSVFAVPPIFDDSYYGQVIHEIREMTVMNMGNYAHGNQPIQHMIYLYDYAGQPWKAQYWLRQVMDRMYTPGPDGYCGDEDNGQTSAWYVFSALGFYPVCPGTDEYVMGTPLFKKATLHFENGNSLVIDAPNNSTENFYIDSMSFNGADHTKNYLRHEDLFKGGTIKVDMSNRPNLNRGTKEEDMPYSFSKELEHHHHHH", "soluble on expression in E. coli": "soluble"}, {"sequence": "MSLDRVEVLGVEFVEFTADQTEAEALGSLLGAMGFRAVASHREKAVTLWRQGCDHRGINVVINTEQKGFAHSSYLVHGASAYAIGLKVPDASAAVERARALGAEIFLPESGEGEGAMAAIRGMGGGLIYFVDEIDDVWSREFVAPGDDRQPAATLVAIDHVAQSMKEEQLPSWLLFYTSILDADKLAQVDIVDPAGLVRSQVVENASGTLRLTLNGADNHREGHHHHHH", "soluble on expression in E. coli": "not soluble"}]}]}
